{"source": "patent US20060110789", "molecular_target": "diketide-ACP4(Ø) (DEBS ACP4 without linker, loaded with diketide), Q03132", "sequence (Q03132 other isoform, or with tags, fused parts or gaps)": "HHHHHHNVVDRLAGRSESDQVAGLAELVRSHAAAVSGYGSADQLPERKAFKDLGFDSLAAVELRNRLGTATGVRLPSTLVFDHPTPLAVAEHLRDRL"}
{"protein": "(5)M2+TE (module 2 of DEBS with the N-terminal linker of module 5, fused to thioesterase) (protein) MSGDNGMTEEKLRRYLKRTVTELDSVTARLREVEHRAGIAIVGMACRLPGEVDSPERLWELITSGRDSAAEVPDDRGWVPDELMASDAAGTRAHGNFMAGAGDFDAAFFGISPREALAMDPQQRQALETTWEALESAGIPPETLRGSDTGVFVGMSHQGYATGRPRPEDGVDGYLLTGNTASVASGRIAYVLGLEGPALTVDTACSSSLVALHTACGSLRDGDCGLAVAGGVSVMAGPEVFTEFSRQGALSPDGRCKPFSDEADGFGLGEGSAFVVLQRLSDARREGRRVLGVVAGSAVNQDGASNGLSAPSGVAQQRVIRRAWARAGITGADVAVVEAHGTGTRLGDPVEASALLATYGKSRGSSGPVLLGSVKSNIGHAQAAAGVAGVIKVLLGLERGVVPPMLCRGERSGLIDWSSGEIELADGVREWSPAADGVRRAGVSAFGVSGTNAHVIIAEPPEPEPVPQPRRMLPATGVVPVVLSARTGAALRAQAGRLADHLAAHPGIAPADVSWTMARARQHFEERAAVLAADTAEAVHRLRAVADGAVVPGVVTGSASDGGSVFVFPGQGAQWEGMARELLPVPVFAESIAECDAVLSEVAGFSVSEVLEPRPDAPSLERVDVVQPVLFAVMVSLARLWRACGAVPSAVIGHSQGEIAAAVVAGALSLEDGMRVVARRSRAVRAVAGRGSMLSVRGGRSDVEKLLADDSWTGRLEVAAVNGPDAVVVAGDAQAAREFLEYCEGVGIRARAIPVDYASHTAHVEPVRDELVQALAGITPRRAEVPFFSTLTGDFLDGTELDAGYWYRNLRHPVEFHSAVQALTDQGYATFIEVSPHPVLASSVQETLDDAESDAAVLGTLERDAGDADRFLTALADAHTRGVAVDWEAVLGRAGLVDLPGYPFQGKRFWLLPDRTTPRDELDGWFYRVDWTEVPRSEPAALRGRWLVVVPEGHEEDGWTVEVRSALAEAGAEPEVTRGVGGLVGDCAGVVSLLALEGDGAVQTLVLVRELDAEGIDAPLWTVTFGAVDAGSPVARPDQAKLWGLGQVASLERGPRWTGLVDLPHMPDPELRGRLTAVLAGSEDQVAVRADAVRARRLSPAHVTATSEYAVPGGTILVTGGTAGLGAEVARWLAGRGAEHLALVSRRGPDTEGVGDLTAELTRLGARVSVHACDVSSREPVRELVHGLIEQGDVVRGVVHAAGLPQQVAINDMDEAAFDEVVAAKAGGAVHLDELCSDAELFLLFSSGAGVWGSARQGAYAAGNAFLDAFARHRRGRGLPATSVAWGLWAAGGMTGDEEAVSFLRERGVRAMPVPRALAALDRVLASGETAVVVTDVDWPAFAESYTAARPRPLLDRIVTTAPSERAGEPETESLRDRLAGLPRAERTAELVRLVRTSTATVLGHDDPKAVRATTPFKELGFDSLAAVRLRNLLNAATGLRLPSTLVFDHPNASAVAGFLDICCAGTAAISGPHEFTRLAGALRGIAPVRAVPQPGYEEGEPLPSSMAAVAAVQADAVIRTQGDKPFVVAGHSAGALMAYALATELLDRGHPPRGVVLIDVYPPGHQDAMNAWLEELTATLFDRETVRMDDTRLTALGAYDRLTGQWRPRETGLPTLLVSAGEPMGPWPDDSWKPTWPFEHDTVAVPGDHFTMVQEHADAIARHIDAWHHHHHH", "values": [{"measurement": "kcat/KM, fold decrease against diketide-ACP4(4) with the same module", "value": "the kcat/KM values drop approximately 70-300 fold"}]}
